Laboratory results reported in patent publication US20220249561A1.

Target: ALK 001P
Experiment: flow cytometry; CAR-T cells incubated with ALK 001P, detected with PE anti-His tag antibody and APC anti-CD3

Chain of ALK 001P (chain, as listed by the source limits assumed): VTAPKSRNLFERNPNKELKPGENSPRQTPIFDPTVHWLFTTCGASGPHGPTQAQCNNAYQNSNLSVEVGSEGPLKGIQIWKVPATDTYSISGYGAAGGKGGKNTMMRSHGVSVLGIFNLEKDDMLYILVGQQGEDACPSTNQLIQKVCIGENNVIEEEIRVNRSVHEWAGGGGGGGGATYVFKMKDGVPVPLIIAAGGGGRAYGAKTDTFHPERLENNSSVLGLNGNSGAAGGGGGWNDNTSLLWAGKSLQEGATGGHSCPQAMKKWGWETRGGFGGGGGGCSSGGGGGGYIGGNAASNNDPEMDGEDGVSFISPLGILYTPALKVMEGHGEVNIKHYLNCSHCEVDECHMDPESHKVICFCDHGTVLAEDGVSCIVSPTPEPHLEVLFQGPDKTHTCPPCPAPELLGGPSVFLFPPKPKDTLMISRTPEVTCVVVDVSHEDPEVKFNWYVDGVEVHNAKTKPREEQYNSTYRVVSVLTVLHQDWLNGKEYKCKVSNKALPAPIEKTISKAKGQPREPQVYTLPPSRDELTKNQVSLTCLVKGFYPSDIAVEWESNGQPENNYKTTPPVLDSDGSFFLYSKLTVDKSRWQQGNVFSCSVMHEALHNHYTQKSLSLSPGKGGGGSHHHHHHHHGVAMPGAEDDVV

- Expression rate (% of cells positive for ALK 001P staining): 24.1%
B1: CAR 021 (FAM150BTr-28z dCH2CH3) (protein)
chain: AEAAGLGPSPEQRVEIVPRDLRMKDKFLKHLTGPLYFSPKCSKHFHRLYHNTRDCTIPAYYKRCARLLTRLAVSPVCMEDKQEPKSCDKTHTCPPCDPAEPKSPDKTHTCPFWVLVVVGGVLACYSLLVTVAFIIFWVRSKRSRLLHSDYMNMTPRRPGPTRKHYQPYAPPRDFAAYRSRVKFSRSADAPAYQQGQNQLYNELNLGRREEYDVLDKRRGRDPEMGGKPRRKNPQEGLYNELQKDKMAEAYSEIGMKGERRRGKGHDGLYQGLSTATKDTYDALHMQALPPR
